Article PMC9506655, “Comparative structural insight into the unidirectional catalysis of ornithine carbamoyltransferases from Psychrobacter sp. PAMC 21119” (PLoS ONE, 2022)

Experiments:
Ps_aOTC [1] = biological target: T1, Ps_aOTC (Psychrobacter sp. PAMC 21119, UniProt A0ACD6BAY5); assay: label-free thermal shift (Tycho NT.[…], intrinsic fluorescence); assay type: binding; conditions: apo Tm 53.7 ± 0.4 °C; saturating at 20 mM CP; 20 mM Tris-HCl pH 8.0; 15 min incubation at 295 K
T1 construct: full-length argF product, N-terminal His6 (pET-28a) kept; expressed in E. coli BL21(DE3); homotrimer in solution

Ps_cOTC [2] = biological target: T2, Ps_cOTC (Psychrobacter sp. PAMC 21119, UniProt Z9QBN3KKL3); assay: as above; assay type: binding; conditions: apo Tm 71.9 ± 0.0 °C; up to 50 mM CP; 20 mM Tris-HCl pH 8.0; 15 min incubation at 295 K
T2 construct: full-length arcB product, N-terminal His6 (pET-28a NdeI) kept; expressed in E. coli BL21(DE3); homotrimer in solution
T2 sequence (Z9QBN3KKL3 1-336): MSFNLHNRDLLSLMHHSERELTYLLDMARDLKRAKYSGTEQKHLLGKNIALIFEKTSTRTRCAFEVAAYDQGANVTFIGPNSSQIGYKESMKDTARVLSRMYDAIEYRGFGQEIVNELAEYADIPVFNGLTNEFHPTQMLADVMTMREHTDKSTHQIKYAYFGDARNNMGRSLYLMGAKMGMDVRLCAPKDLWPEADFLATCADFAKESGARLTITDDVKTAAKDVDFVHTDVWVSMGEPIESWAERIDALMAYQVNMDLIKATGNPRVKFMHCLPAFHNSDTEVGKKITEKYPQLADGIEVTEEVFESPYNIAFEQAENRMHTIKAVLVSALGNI

Ps_aOTC [3] = biological target: T1, Ps_aOTC; assay: as above; assay type: binding; conditions: with 5 mM CP (no shift by NVA alone); 20 mM Tris-HCl pH 8.0; 15 min incubation at 295 K
Ps_cOTC [4] = biological target: T2, Ps_cOTC; assay: as above; assay type: binding; conditions: with 50 mM CP (no shift by NVA alone); 20 mM Tris-HCl pH 8.0; 15 min incubation at 295 K
[5] = biological target: anabolic ornithine carbamoyltransferase from Psychrobacter sp. PAMC 21119 (Psychrobacter sp. PAMC 21119); assay: crystal structure; X-ray, molecular replacement; Ps_cOTC at 2.6 Å (0.1 M Tris-HCl pH 8.1, 1.3 M lithium sulfate), Ps_aOTC at 2.2 Å (0.1 M sodium acetate:HCl pH 4.6, 1 M ammonium citrate dibasic)
[6] = biological target: anabolic ornithine carbamoyltransferase from Psychrobacter sp. PAMC 21119 (Psychrobacter sp. PAMC 21119); assay: SEC; Superdex 200 10/300 GL, 20 mM Tris-HCl pH 8.0, NaCl 300, 500 and 1,000 mM, protein 1 mg/mL, column calibrated with standards
[7] = biological target: anabolic ornithine carbamoyltransferase from Psychrobacter sp. PAMC 21119 (Psychrobacter sp. PAMC 21119); assay: AUC; sedimentation velocity, 20 mM Tris-HCl pH 8.0, 200 mM NaCl, 20°C, 42,000 RPM, SEDFIT
[8] = biological target: catabolic ornithine carbamoyltransferase from Psychrobacter sp. PAMC 21119 (Psychrobacter sp. PAMC 21119); assay: crystal structure; X-ray, molecular replacement; Ps_cOTC at 2.6 Å (0.1 M Tris-HCl pH 8.1, 1.3 M lithium sulfate), Ps_aOTC at 2.2 Å (0.1 M sodium acetate:HCl pH 4.6, 1 M ammonium citrate dibasic)
[9] = biological target: catabolic ornithine carbamoyltransferase from Psychrobacter sp. PAMC 21119 (Psychrobacter sp. PAMC 21119); assay: SEC; Superdex 200 10/300 GL, 20 mM Tris-HCl pH 8.0, NaCl 300, 500 and 1,000 mM, protein 1 mg/mL, column calibrated with standards
[10] = biological target: catabolic ornithine carbamoyltransferase from Psychrobacter sp. PAMC 21119 (Psychrobacter sp. PAMC 21119); assay: AUC; sedimentation velocity, 20 mM Tris-HCl pH 8.0, 200 mM NaCl, 20°C, 42,000 RPM, SEDFIT

T1 sequence (A0ACD6BAY5 entry or part of it): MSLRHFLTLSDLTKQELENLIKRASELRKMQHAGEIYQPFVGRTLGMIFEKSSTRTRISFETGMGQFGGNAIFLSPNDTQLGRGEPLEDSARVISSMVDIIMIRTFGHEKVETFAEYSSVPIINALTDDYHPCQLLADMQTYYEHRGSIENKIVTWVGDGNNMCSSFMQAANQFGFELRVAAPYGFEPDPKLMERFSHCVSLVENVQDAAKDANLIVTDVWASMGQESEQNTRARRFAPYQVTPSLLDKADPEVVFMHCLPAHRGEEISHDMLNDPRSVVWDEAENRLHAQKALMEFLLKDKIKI

## NC(=O)OP(=O)(O)O [CP, carbamoyl phosphate]
Ps_aOTC [1]
  ΔT: 6.5 °C
Ps_cOTC [2]
  ΔT: 1.3 °C

## CCC[C@H](N)C(=O)O [NVA, l-norvaline]
Ps_aOTC [3]
  thermal shift: following CP binding, NVA can bind to Ps_cOTC and Ps_aOTC
Ps_cOTC [4]
  thermal shift: following CP binding, NVA can bind to Ps_cOTC and Ps_aOTC

## anabolic ornithine carbamoyltransferase from Psychrobacter sp. PAMC 21119 (enzyme)
[5]
  stoichiometry N: 3
[6]
  stoichiometry N: 3
[7]
  stoichiometry N: 3

## catabolic ornithine carbamoyltransferase from Psychrobacter sp. PAMC 21119 (enzyme)
[8]
  stoichiometry N: 3
[9]
  stoichiometry N: 3
[10]
  stoichiometry N: 3
